± gives the uncertainty stated by the source.
Experiment: self-splicing fitness, log relative to wild type (ln ratio); higher = more splicing; Tetrahymena group I intron in knt gene, E. coli kanamycin selection, DiMSum; sequences stand for … in CUCUCU…GGAGGGAAAAGUUAUCAGGCAUGCACCUGGUAGCUAGUCUUUAAACCAAUAGAUUGCAUCGGUUUAAAAGGCAAGACCGUCAAAUUGCGGGAAAGGGGUCAACAGCCGUUCAGUACCAAGUCUCAGGGGAAACUUUGAGAUGGCCUUGCAAAGGGUAUGGUAAUAAGCUGACGGACAUGGUCCUAACCACGCAGCCAAGUCCUAAGUCAACAGAUCUUCUGUUGAUAUGGAUGCAGUUCACAGACUAAAUGUCGGUCGGGGAAGAUGUAUUCUUCUCAUAAGAUAUAGUCGGACCUCUCCUUAAUGGGAGCUAGCGGAUGAAGUGAUGCAACACUGGAGCCGCUGGGAACUAAUUUGUAUGCGAAAGUAUAUUGAUUAGUUUUGGAGUACUCGUGGUCG
How it was run: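 Library with all eight P1ex-region intron nucleotides randomised, intron inside the knt kanamycin-resistance gene on pET-22b(+), in E. coli BL21(DE3). Cells grew overnight at 37°C or 30°C on LB agar with or without 25 μg/mL kanamycin (plus 100 μg/mL carbenicillin, 50 μM IPTG, 0.2% rhamnose), in six replicate transformations. Pooled colonies were amplicon-sequenced on Illumina HiSeq 2500. DiMSum fitness is the error-weighted combination of wild-type-normalised replicate fold changes, kanamycin versus none.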

| Sequence | self-splicing fitness (ln) (30 °C) | self-splicing fitness (ln) (37 °C) |
| --- | --- | --- |
| AGAAAGCAAUAUUACGUUCU | -2.72 ± 0.15 | -1.41 ± 0.14 |
| AGAAAGCAAUAUUACGUUUG | -2.48 ± 0.14 | -2.24 ± 0.21 |
| AGACAGCAAUAUUACGAAGU | -3.47 ± 0.14 | -2.26 ± 0.15 |
| AGACAGCAAUAUUACGACAU | -0.107 ± 0.011 | -0.0048 ± 0.032 |
| AGACAGCAAUAUUACGAUCG | -0.599 ± 0.072 | 0.599 ± 0.11 |
| AGACAGCAAUAUUACGCAAG | -2.89 ± 0.11 | -0.553 ± 0.1 |
| AGACAGCAAUAUUACGCACU | -0.646 ± 0.12 | -0.203 ± 0.13 |
| AGACAGCAAUAUUACGCAGA | -2.56 ± 0.27 | -1.38 ± 0.2 |
| AGACAGCAAUAUUACGCAUA | -2.73 ± 0.18 | -1.23 ± 0.11 |
| AGACAGCAAUAUUACGCCAG | -4.58 ± 0.46 | -3.27 ± 0.26 |
| AGACAGCAAUAUUACGCGCA | -0.449 ± 0.084 | 0.312 ± 0.13 |
| AGACAGCAAUAUUACGCGCC | -0.399 ± 0.14 | -0.637 ± 0.12 |
| AGACAGCAAUAUUACGCUUU | -3.18 ± 0.18 | -1.23 ± 0.12 |
| AGACAGCAAUAUUACGGAUA | -2.97 ± 0.12 | -2.17 ± 0.13 |
| AGACAGCAAUAUUACGGGUC | -3.04 ± 0.18 | -2.92 ± 0.31 |
| AGACAGCAAUAUUACGUCCC | -2.45 ± 0.18 | -0.529 ± 0.17 |
| AGACAGCAAUAUUACGUCCG | -0.314 ± 0.12 | -0.305 ± 0.15 |
| AGACAGCAAUAUUACGUCGC | -2.96 ± 0.2 | -1.98 ± 0.19 |
| AGACAGCAAUAUUACGUCUU | -4.54 ± 0.25 | -2.74 ± 0.18 |
| AGACAGCAAUAUUACGUUCC | -2.2 ± 0.16 | -1.77 ± 0.18 |
| AGACAGCAAUAUUACGUUCG | -0.687 ± 0.05 | 0.0905 ± 0.072 |
| AGAGAGCAAUAUUACGACUU | -1.7 ± 0.15 | -0.522 ± 0.15 |
| AGAGAGCAAUAUUACGAGAU | -2.92 ± 0.37 | -1.38 ± 0.27 |
| AGAGAGCAAUAUUACGAGGG | -3.58 ± 0.39 | -2.35 ± 0.42 |
| AGAGAGCAAUAUUACGAGUG |  | -2.15 ± 0.34 |

| Sequence | self-splicing fitness (ln) (30 °C) | self-splicing fitness (ln) (37 °C) |
| --- | --- | --- |
| AGAGAGCAAUAUUACGGAAG | -3.74 ± 0.33 | -1.32 ± 0.22 |
| AGAGAGCAAUAUUACGGCAC |  | -1.68 ± 0.18 |
| AGAGAGCAAUAUUACGGUUU | -1.98 ± 0.19 | -2.58 ± 0.25 |
| AGAGAGCAAUAUUACGUAGA | -3.63 ± 0.25 | -2.65 ± 0.34 |
| AGAGAGCAAUAUUACGUCAG | -0.659 ± 0.45 |  |
| AGAGAGCAAUAUUACGUGGC | -3.07 ± 0.25 | -1.59 ± 0.35 |
| AGAGAGCAAUAUUACGUUCC | -1.63 ± 0.18 | -3.14 ± 0.47 |
| AGAGAGCAAUAUUACGUUCU | -3.19 ± 0.41 | -2.26 ± 0.45 |
| AGAUAGCAAUAUUACGAAAG | -2.68 ± 0.2 | -1.23 ± 0.21 |
| AGAUAGCAAUAUUACGAACG | -1.12 ± 0.12 | -0.323 ± 0.13 |
| AGAUAGCAAUAUUACGAAGC |  | -1.5 ± 0.28 |
| AGAUAGCAAUAUUACGAGCC | -0.476 ± 0.18 | -1.76 ± 0.28 |
| AGAUAGCAAUAUUACGAGUU | -2.21 ± 0.1 | -0.588 ± 0.099 |
| AGAUAGCAAUAUUACGAUGG | -2.2 ± 0.14 | -3.07 ± 0.22 |
| AGAUAGCAAUAUUACGAUUU | -0.348 ± 0.084 | 0.527 ± 0.11 |
| AGAUAGCAAUAUUACGCAAU | -1.14 ± 0.1 | -1.34 ± 0.15 |
| AGAUAGCAAUAUUACGCAGG | -1.91 ± 0.17 | -0.155 ± 0.19 |
| AGAUAGCAAUAUUACGCCCC | -1.27 ± 0.26 | -0.202 ± 0.4 |
| AGAUAGCAAUAUUACGCCGA | -1.89 ± 0.3 | -0.973 ± 0.3 |
| AGAUAGCAAUAUUACGCCUG | -1.13 ± 0.12 | -0.496 ± 0.13 |
| AGAUAGCAAUAUUACGCGGG | -1.66 ± 0.13 | -1.68 ± 0.15 |
| AGAUAGCAAUAUUACGCUAA | -1.46 ± 0.15 | -0.455 ± 0.15 |
| AGAUAGCAAUAUUACGCUAG | -3.21 ± 0.4 | -2.24 ± 0.42 |
| AGAUAGCAAUAUUACGCUGC |  | -1.26 ± 0.34 |
| AGAUAGCAAUAUUACGGCAA | 0.243 ± 0.16 | -0.127 ± 0.19 |

| Sequence | self-splicing fitness (ln) (30 °C) | self-splicing fitness (ln) (37 °C) |
| --- | --- | --- |
| AGAUAGCAAUAUUACGGCAC | -1.52 ± 0.16 | -0.639 ± 0.23 |
| AGAUAGCAAUAUUACGGCCC | -0.127 ± 0.19 | -0.606 ± 0.23 |
| AGAUAGCAAUAUUACGGCGU | -0.0254 ± 0.091 | 0.663 ± 0.1 |
| AGAUAGCAAUAUUACGGCUU | -0.346 ± 0.11 | -0.141 ± 0.097 |
| AGAUAGCAAUAUUACGGGUG | -2.83 ± 0.2 | -1.88 ± 0.21 |
| AGAUAGCAAUAUUACGGUGG | -1.66 ± 0.12 | -2.23 ± 0.16 |
| AGAUAGCAAUAUUACGUCCC | -1.36 ± 0.2 | 0.133 ± 0.32 |
| AGAUAGCAAUAUUACGUCGA | -0.721 ± 0.13 | 0.375 ± 0.13 |
| AGAUAGCAAUAUUACGUCGC | -3.24 ± 0.39 | -1.21 ± 0.23 |
| AGAUAGCAAUAUUACGUCUU | -2.52 ± 0.14 | -2.07 ± 0.17 |
| AGAUAGCAAUAUUACGUUAG | -4.56 ± 0.31 | -0.345 ± 0.15 |
| AGAUAGCAAUAUUACGUUCA | -0.78 ± 0.13 | -0.5 ± 0.15 |
| AGAUAGCAAUAUUACGUUUC | -3.56 ± 0.29 |  |
| AGCAAGCAAUAUUACGACAU | -0.211 ± 0.011 | 0.0321 ± 0.032 |
| AGCAAGCAAUAUUACGAGAG | -3.11 ± 0.2 | -2.42 ± 0.25 |
| AGCAAGCAAUAUUACGAGGA | -2.86 ± 0.17 | -2.29 ± 0.2 |
| AGCAAGCAAUAUUACGAUGU | -1.92 ± 0.068 | -0.392 ± 0.076 |
| AGCAAGCAAUAUUACGAUUG | -4.19 ± 0.17 | -1.91 ± 0.11 |
| AGCAAGCAAUAUUACGCCUU | -1.24 ± 0.1 | 0.351 ± 0.11 |
| AGCAAGCAAUAUUACGCGGU | -3.33 ± 0.16 | -1.66 ± 0.17 |
| AGCAAGCAAUAUUACGGCCA | -0.0326 ± 0.088 | -0.0437 ± 0.12 |
| AGCAAGCAAUAUUACGGCGU | -0.229 ± 0.078 | 0.0744 ± 0.1 |
| AGCAAGCAAUAUUACGGGCA | -0.263 ± 0.071 | 0.111 ± 0.084 |
| AGCAAGCAAUAUUACGGUGG | -2.65 ± 0.1 | -2.32 ± 0.15 |
| AGCAAGCAAUAUUACGUCAA | -1.76 ± 0.13 | -1.13 ± 0.11 |

| Sequence | self-splicing fitness (ln) (30 °C) | self-splicing fitness (ln) (37 °C) |
| --- | --- | --- |
| AGCAAGCAAUAUUACGUCCC | -0.545 ± 0.1 | -0.16 ± 0.13 |
| AGCAAGCAAUAUUACGUCUG | -2.22 ± 0.09 | -1.15 ± 0.095 |
| AGCAAGCAAUAUUACGUGAA | -2.21 ± 0.068 | -1.95 ± 0.11 |
| AGCAAGCAAUAUUACGUGGC | -2.83 ± 0.15 | -3.3 ± 0.21 |
| AGCAAGCAAUAUUACGUGUU | -3.17 ± 0.18 | -2.64 ± 0.17 |
| AGCAAGCAAUAUUACGUUCG | -2.66 ± 0.084 | -1.44 ± 0.09 |
| AGCCAGCAAUAUUACGAAAU | -3.02 ± 0.11 | -2.17 ± 0.13 |
| AGCCAGCAAUAUUACGACCG | -3.83 ± 0.32 | -1.89 ± 0.24 |
| AGCCAGCAAUAUUACGACGC | -1.66 ± 0.14 | -0.853 ± 0.16 |
| AGCCAGCAAUAUUACGACGU | -0.356 ± 0.068 | -0.487 ± 0.085 |
| AGCCAGCAAUAUUACGAGUA | -3.06 ± 0.22 | -1.5 ± 0.16 |
| AGCCAGCAAUAUUACGAUGU | -2.62 ± 0.16 | -1.32 ± 0.13 |
| AGCCAGCAAUAUUACGAUUC | -2.67 ± 0.22 | -2.49 ± 0.3 |
| AGCCAGCAAUAUUACGCGCC | -2.18 ± 0.15 | -1.74 ± 0.23 |
| AGCCAGCAAUAUUACGCGGU | -2.93 ± 0.28 | -2.29 ± 0.33 |
| AGCCAGCAAUAUUACGCUGC | -3.09 ± 0.34 | -2.59 ± 0.26 |
| AGCCAGCAAUAUUACGGAAC | -2.72 ± 0.18 | -3.1 ± 0.3 |
| AGCCAGCAAUAUUACGGAUC | -2.03 ± 0.1 | -1.25 ± 0.13 |
| AGCCAGCAAUAUUACGGCAA | -0.763 ± 0.067 | -0.321 ± 0.075 |
| AGCCAGCAAUAUUACGGCUU | -4.74 ± 0.41 | -2.89 ± 0.21 |
| AGCCAGCAAUAUUACGGGUC | -3.28 ± 0.18 | -2.13 ± 0.2 |
| AGCCAGCAAUAUUACGGUGA | -1.82 ± 0.091 | -1.2 ± 0.089 |
